Laboratory results as given in publication PMC3748026, “The Mini-Chromosome Maintenance (Mcm) Complexes Interact with DNA Polymerase α-Primase and Stimulate Its Ability to Synthesize RNA Primers” (PLoS ONE, 2013).
One block for each binder: values may come before it.

Legend:
Mcm4/6/7 complex = Mcm4/6/7 complex (mouse, UniProt P49717;P97311;Q61881 1-862;1-821;1-719); assay: EMSA; 0.5 mM ATPgS; 2.3 nM Mcm4/6/7; EMSA: 25 mM Tris-HCl pH 7.5, 40 mM Na acetate, 10 mM Mg acetate, 20 mM 2-mercaptoethanol, 0.25 mg/ml BSA, 0.5 mM ATPgS, 30 C 30 min; pull-down: 25 mM Tris-HCl pH 7.5, 100 mM Na acetate, 10 mM Mg acetate, 0.25 mg/ml casein, 1 mM DTT, 0.01% Triton-X, 0.5 mM ATPgS or 1 mM ATP, 30 C 30 min then beads 4 C 30 min; conditions: protein: recombinant; tags: His6-Mcm4; Mcm7-Flag; chain copies: 2;2;2; label: 5'-32P; single strand
Chain of Mcm4/6/7 complex (P49717 whole entry, chain 1 of 3): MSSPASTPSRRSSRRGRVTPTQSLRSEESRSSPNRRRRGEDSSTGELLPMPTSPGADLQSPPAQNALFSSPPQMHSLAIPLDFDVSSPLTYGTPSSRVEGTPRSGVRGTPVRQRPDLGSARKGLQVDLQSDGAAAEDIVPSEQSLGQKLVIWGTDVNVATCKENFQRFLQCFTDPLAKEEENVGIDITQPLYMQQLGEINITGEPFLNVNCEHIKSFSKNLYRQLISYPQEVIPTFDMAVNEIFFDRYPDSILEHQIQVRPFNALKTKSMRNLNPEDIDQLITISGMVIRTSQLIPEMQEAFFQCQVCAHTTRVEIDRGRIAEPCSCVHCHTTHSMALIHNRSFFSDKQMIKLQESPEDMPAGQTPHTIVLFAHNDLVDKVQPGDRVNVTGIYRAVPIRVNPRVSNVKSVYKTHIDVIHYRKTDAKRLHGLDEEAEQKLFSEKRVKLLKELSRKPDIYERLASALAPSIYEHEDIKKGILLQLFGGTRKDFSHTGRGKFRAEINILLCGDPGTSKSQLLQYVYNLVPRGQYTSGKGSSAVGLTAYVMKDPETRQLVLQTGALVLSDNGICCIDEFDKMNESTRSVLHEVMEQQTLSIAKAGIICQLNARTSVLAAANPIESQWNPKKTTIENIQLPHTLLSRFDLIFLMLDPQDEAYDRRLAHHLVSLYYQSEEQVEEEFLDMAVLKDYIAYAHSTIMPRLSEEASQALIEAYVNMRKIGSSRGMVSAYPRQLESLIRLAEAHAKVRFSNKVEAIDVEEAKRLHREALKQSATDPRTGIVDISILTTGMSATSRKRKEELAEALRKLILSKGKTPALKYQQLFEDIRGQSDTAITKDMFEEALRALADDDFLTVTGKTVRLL
Chain of Mcm4/6/7 complex (P97311 whole entry, chain 2 of 3): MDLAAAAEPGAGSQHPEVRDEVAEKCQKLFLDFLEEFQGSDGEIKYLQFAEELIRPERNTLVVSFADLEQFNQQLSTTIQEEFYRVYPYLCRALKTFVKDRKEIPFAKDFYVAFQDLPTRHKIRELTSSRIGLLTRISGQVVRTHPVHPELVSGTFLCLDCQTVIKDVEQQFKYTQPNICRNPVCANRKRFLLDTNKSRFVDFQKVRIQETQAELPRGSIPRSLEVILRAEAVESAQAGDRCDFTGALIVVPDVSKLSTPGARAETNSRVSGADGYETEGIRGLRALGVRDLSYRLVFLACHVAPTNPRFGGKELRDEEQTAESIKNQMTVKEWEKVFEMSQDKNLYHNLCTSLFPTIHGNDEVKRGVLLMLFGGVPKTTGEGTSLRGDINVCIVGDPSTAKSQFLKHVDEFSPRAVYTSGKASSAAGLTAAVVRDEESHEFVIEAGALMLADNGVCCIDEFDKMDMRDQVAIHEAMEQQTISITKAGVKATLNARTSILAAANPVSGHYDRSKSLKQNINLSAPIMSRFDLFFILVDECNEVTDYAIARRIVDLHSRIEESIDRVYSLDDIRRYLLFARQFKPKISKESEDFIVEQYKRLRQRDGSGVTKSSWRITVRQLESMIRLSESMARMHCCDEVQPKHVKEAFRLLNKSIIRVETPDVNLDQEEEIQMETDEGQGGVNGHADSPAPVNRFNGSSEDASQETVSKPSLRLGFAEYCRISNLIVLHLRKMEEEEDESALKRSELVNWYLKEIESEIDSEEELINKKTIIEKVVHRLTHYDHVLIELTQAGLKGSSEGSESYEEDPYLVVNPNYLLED
Chain of Mcm4/6/7 complex (Q61881 whole entry, chain 3 of 3): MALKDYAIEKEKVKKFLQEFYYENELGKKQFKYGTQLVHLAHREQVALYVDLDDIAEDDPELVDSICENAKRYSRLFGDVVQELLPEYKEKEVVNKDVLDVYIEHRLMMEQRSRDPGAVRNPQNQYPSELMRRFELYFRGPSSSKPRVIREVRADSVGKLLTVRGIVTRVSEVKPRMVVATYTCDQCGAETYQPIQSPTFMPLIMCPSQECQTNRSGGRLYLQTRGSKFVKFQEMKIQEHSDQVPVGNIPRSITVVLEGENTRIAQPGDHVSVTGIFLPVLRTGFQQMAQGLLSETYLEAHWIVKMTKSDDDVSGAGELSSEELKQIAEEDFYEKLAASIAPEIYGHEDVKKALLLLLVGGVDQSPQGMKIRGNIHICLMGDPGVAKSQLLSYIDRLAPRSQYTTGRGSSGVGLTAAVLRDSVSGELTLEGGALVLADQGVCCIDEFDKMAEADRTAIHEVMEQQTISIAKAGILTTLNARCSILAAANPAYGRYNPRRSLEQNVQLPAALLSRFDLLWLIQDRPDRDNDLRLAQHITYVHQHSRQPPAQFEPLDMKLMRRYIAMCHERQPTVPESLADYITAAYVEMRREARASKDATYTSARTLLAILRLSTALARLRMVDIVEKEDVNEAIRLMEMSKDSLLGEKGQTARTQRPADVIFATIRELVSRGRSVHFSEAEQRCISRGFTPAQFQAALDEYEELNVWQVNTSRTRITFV

[1] = biological target: Mcm4/6/7 complex;DNA primase p48/p58 (mouse;human, UniProt P49717;P97311;Q61881;P49642;P49643 1-862;1-821;1-719;1-420;1-509, |); assay: EMSA; 0.5 mM ATPgS; 2.3 nM Mcm4/6/7, 25-100 nM primase; slower band, proportional to primase; EMSA: 25 mM Tris-HCl pH 7.5, 40 mM Na acetate, 10 mM Mg acetate, 20 mM 2-mercaptoethanol, 0.25 mg/ml BSA, 0.5 mM ATPgS, 30 C 30 min; pull-down: 25 mM Tris-HCl pH 7.5, 100 mM Na acetate, 10 mM Mg acetate, 0.25 mg/ml casein, 1 mM DTT, 0.01% Triton-X, 0.5 mM ATPgS or 1 mM ATP, 30 C 30 min then beads 4 C 30 min; conditions: protein: recombinant;recombinant; tags: His6-Mcm4; Mcm7-Flag;His6 on p58; p48 untagged; chain copies: 2;2;2;1;1; label: 5'-32P; single strand
Chain of Mcm4/6/7 complex;DNA primase p48/p58 (P49717 whole entry, chain 1 of 3): as the sequence (P49717 whole entry, chain 1 of 3) above
Chain of Mcm4/6/7 complex;DNA primase p48/p58 (P97311 whole entry, chain 2 of 3): as the sequence (P97311 whole entry, chain 2 of 3) above
Chain of Mcm4/6/7 complex;DNA primase p48/p58 (Q61881 whole entry, chain 3 of 3): as the sequence (Q61881 whole entry, chain 3 of 3) above

DNA primase p48/p58 = biological target: T1, DNA primase p48/p58 (human, UniProt P49642;P49643 1-420;1-509); assay: EMSA; 0.5 mM ATPgS; EMSA: 25 mM Tris-HCl pH 7.5, 40 mM Na acetate, 10 mM Mg acetate, 20 mM 2-mercaptoethanol, 0.25 mg/ml BSA, 0.5 mM ATPgS, 30 C 30 min; pull-down: 25 mM Tris-HCl pH 7.5, 100 mM Na acetate, 10 mM Mg acetate, 0.25 mg/ml casein, 1 mM DTT, 0.01% Triton-X, 0.5 mM ATPgS or 1 mM ATP, 30 C 30 min then beads 4 C 30 min; conditions: protein: recombinant; tags: His6 on p58; p48 untagged; copies: 1;1; label: 5'-32P; single strand
T1 sequence 1: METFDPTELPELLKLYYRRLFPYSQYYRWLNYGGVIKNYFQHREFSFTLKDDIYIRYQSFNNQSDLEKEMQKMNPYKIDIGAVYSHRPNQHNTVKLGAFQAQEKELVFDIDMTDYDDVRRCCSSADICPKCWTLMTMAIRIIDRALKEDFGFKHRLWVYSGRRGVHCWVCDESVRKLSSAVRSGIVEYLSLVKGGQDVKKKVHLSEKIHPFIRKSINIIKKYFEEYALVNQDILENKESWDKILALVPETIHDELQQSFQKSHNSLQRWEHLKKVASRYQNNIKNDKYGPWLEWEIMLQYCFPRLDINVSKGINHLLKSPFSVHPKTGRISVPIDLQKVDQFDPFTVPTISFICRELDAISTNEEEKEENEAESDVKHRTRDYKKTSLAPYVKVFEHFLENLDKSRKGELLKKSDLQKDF
T1 sequence 2: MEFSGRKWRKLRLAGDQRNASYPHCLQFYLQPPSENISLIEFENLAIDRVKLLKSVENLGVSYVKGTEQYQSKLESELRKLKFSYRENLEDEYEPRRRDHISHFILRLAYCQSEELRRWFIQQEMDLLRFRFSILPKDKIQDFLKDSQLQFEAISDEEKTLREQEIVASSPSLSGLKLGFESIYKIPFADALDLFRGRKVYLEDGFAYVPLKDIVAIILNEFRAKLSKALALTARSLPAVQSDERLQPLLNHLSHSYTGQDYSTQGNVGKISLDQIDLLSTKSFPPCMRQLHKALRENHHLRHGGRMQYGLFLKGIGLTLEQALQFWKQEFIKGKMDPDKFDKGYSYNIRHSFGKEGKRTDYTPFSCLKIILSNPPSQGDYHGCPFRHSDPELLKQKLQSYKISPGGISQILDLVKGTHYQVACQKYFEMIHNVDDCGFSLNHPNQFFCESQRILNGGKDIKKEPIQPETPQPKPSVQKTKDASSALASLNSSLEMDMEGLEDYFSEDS

[2] = biological target: T2, mouse Mcm2∼7 complex (Mcm2/3/4/5/6/7), Flag tag on Mcm5 (mouse, UniProt P97310 1-904; P25206 1-812; P49717 1-862; P49718 1-734; P97311 1-821; Q61881 …); assay: cell-based or functional assay
[3] = biological target: mouse Mcm4/6/7 complex (His6-Mcm4, Mcm6, Mcm7-Flag) (mouse, UniProt P49717 1-862; P97311 1-821; Q61881 1-719); assay: cell-based or functional assay
Chain of mouse Mcm4/6/7 complex (His6-Mcm4, Mcm6, Mcm7-Flag) (P49717 whole entry, chain 1 of 3): as the sequence (P49717 whole entry, chain 1 of 3) above
Chain of mouse Mcm4/6/7 complex (His6-Mcm4, Mcm6, Mcm7-Flag) (P97311 whole entry, chain 2 of 3): as the sequence (P97311 whole entry, chain 2 of 3) above
Chain of mouse Mcm4/6/7 complex (His6-Mcm4, Mcm6, Mcm7-Flag) (Q61881 whole entry, chain 3 of 3): as the sequence (Q61881 whole entry, chain 3 of 3) above

[4] = biological target: the molecule itself; assay: native gel or EMSA; proteins alone or mixed, 25 mM Tris-HCl pH 7.5, 5 mM magnesium acetate, 20 mM 2-mercaptoethanol, 0.01% Triton X-100, 1 mM ATP, 30°C 15 min; 5% native PAGE at 4°C, silver staining; no DNA
[5] = biological target: T2, mouse Mcm2∼7 complex (Mcm2/3/4/5/6/7), …; assay: co-IP; purified Mcm2∼7 (Flag tag on Mcm5) held on anti-Flag M2 antibody agarose beads, mixed with purified primase, His-p48 or GINS, with or without an oligonucleotide, GINS or DNase I; 50 mM Tris-HCl pH 7.5, 100 mM sodium acetate, 5 mM magnesium acetate, 1 mM ATP, 10% glycerol, 0.01% Triton X-100; 2 h at 4°C; eluted with 0.1 M glycine pH 2.8 or boiled; silver or SYPRO staining and Western blotting; conditions: both partners purified

B1: 132-mer pyrimidine-rich oligonucleotide (ssDNA)
DNA: CCACACATGATTTGTTTGCTCCCTGAAATGATCTATATTTAATATATAATGTATATTCCCTCGGGATTTTTTATTTTGTGTTATTCCACGGCATGAAAAACAAAAAACATTCTTCTCATCCTTGGTCCCTCA
- binding result (Mcm4/6/7 complex): binds
- binding result [1]: binds
- binding result (DNA primase p48/p58): binds

- RNA primer synthesis by p48/p58 primase on poly(dT) with 100-400 ng of Mcm2∼7 [2]: ~3 fold
- RNA primer synthesis by p48/p58 primase on M13 ssDNA with 100-600 ng of Mcm4/6/7 [3]: 4 to 7 fold
- RNA primer synthesis by p48/p58 primase on poly(dT) with 100-600 ng of Mcm4/6/7 [3]: ~3 fold
B2: human DNA primase p48/p58 hetero-dimeric complex (His-tagged p58, non-tagged p48) (complex)
chain 1: METFDPTELPELLKLYYRRLFPYSQYYRWLNYGGVIKNYFQHREFSFTLKDDIYIRYQSFNNQSDLEKEMQKMNPYKIDIGAVYSHRPNQHNTVKLGAFQAQEKELVFDIDMTDYDDVRRCCSSADICPKCWTLMTMAIRIIDRALKEDFGFKHRLWVYSGRRGVHCWVCDESVRKLSSAVRSGIVEYLSLVKGGQDVKKKVHLSEKIHPFIRKSINIIKKYFEEYALVNQDILENKESWDKILALVPETIHDELQQSFQKSHNSLQRWEHLKKVASRYQNNIKNDKYGPWLEWEIMLQYCFPRLDINVSKGINHLLKSPFSVHPKTGRISVPIDLQKVDQFDPFTVPTISFICRELDAISTNEEEKEENEAESDVKHRTRDYKKTSLAPYVKVFEHFLENLDKSRKGELLKKSDLQKDF
chain 2: MEFSGRKWRKLRLAGDQRNASYPHCLQFYLQPPSENISLIEFENLAIDRVKLLKSVENLGVSYVKGTEQYQSKLESELRKLKFSYRENLEDEYEPRRRDHISHFILRLAYCQSEELRRWFIQQEMDLLRFRFSILPKDKIQDFLKDSQLQFEAISDEEKTLREQEIVASSPSLSGLKLGFESIYKIPFADALDLFRGRKVYLEDGFAYVPLKDIVAIILNEFRAKLSKALALTARSLPAVQSDERLQPLLNHLSHSYTGQDYSTQGNVGKISLDQIDLLSTKSFPPCMRQLHKALRENHHLRHGGRMQYGLFLKGIGLTLEQALQFWKQEFIKGKMDPDKFDKGYSYNIRHSFGKEGKRTDYTPFSCLKIILSNPPSQGDYHGCPFRHSDPELLKQKLQSYKISPGGISQILDLVKGTHYQVACQKYFEMIHNVDDCGFSLNHPNQFFCESQRILNGGKDIKKEPIQPETPQPKPSVQKTKDASSALASLNSSLEMDMEGLEDYFSEDS
notes: DNA primase small subunit p48, human; DNA primase large subunit p58, human; End of the His tag is read from the printed name His-p58; also called His-p58/p48 complex; His-tagged p48/p58 complex; source: E. coli BL21 (DE3) RIL, purified as previously described [58]; not shown: His tag, N-terminal, kept
- binding result [4]: binds

- binding result [5]: binds
B3: His-tagged p48 alone (human DNA primase p48 single subunit) (natural protein, UniProt P49642 1-420, looked up)
chain: METFDPTELPELLKLYYRRLFPYSQYYRWLNYGGVIKNYFQHREFSFTLKDDIYIRYQSFNNQSDLEKEMQKMNPYKIDIGAVYSHRPNQHNTVKLGAFQAQEKELVFDIDMTDYDDVRRCCSSADICPKCWTLMTMAIRIIDRALKEDFGFKHRLWVYSGRRGVHCWVCDESVRKLSSAVRSGIVEYLSLVKGGQDVKKKVHLSEKIHPFIRKSINIIKKYFEEYALVNQDILENKESWDKILALVPETIHDELQQSFQKSHNSLQRWEHLKKVASRYQNNIKNDKYGPWLEWEIMLQYCFPRLDINVSKGINHLLKSPFSVHPKTGRISVPIDLQKVDQFDPFTVPTISFICRELDAISTNEEEKEENEAESDVKHRTRDYKKTSLAPYVKVFEHFLENLDKSRKGELLKKSDLQKDF
notes: DNA primase small subunit p48, human; End of the His tag is read from the printed name His-p48; also called His-p48; source: E. coli BL21 (DE3) RIL, purified as previously described [58]; not shown: His tag, N-terminal, kept
